The values that follow come from the Immune Epitope Database (IEDB).

In one test the target is HLA-A*01:01. Put plainly: IEDB peptide-MHC binding, purified MHC/direct/fluorescence; filed as Kd, often an IC50 or EC50 that approximates it; ≥ and ≤ were set here for values at or beyond the usual limits of such assays.
For test [1], the target named is HLA-A*02:01. The test is described as above.
The target in test [2] is HLA-A*03:01. Described as above.
The target of the next test is HLA-A*11:01. Described as above.
The target in test [3] is HLA-A*24:02. The test is described as above.
Another test concerns the target HLA-A*26:01. The test is described as above.
The target of another test is HLA-A*69:01. The description is as above.
The target of test [4] is HLA-B*07:02. The test is described as above.
The next test deals with HLA-B*08:01. The description is as above.
Test [5] concerns the target HLA-B*15:01. The description is as above.
The next test concerns the target HLA-B*18:01. The test is described as above.
The target of a further test is HLA-B*27:05. Described as above.
The next test concerns the target HLA-B*40:01. Described as above.
In a further test the target is HLA-B*44:02. The description is as above.
The target in the next test is HLA-B*46:01. The description is as above.
The target in the next test is HLA-B*58:01. Described as above.
A further test addresses HLA-A*31:01. Described as above.
The target of another test is HLA-B*15:09. Described as above.
The target of test [6] is HLA-A*24:02. Put plainly: IEDB peptide-MHC binding, purified MHC/competitive/fluorescence; ≥ and ≤ were set here for values at or beyond the usual limits of such assays. The settings on record: source organism: Zaire ebolavirus.
The target of test [7] is HLA-B*07:02. The description is as above.
For test [8], the target named is HLA-B*15:01. The test is described as above. The settings on record: source organism: Zaire ebolavirus.
Test [9] concerns the target HLA-A*29:02. Put plainly: IEDB peptide-MHC binding, purified MHC/competitive/fluorescence; filed as Kd, often an IC50 or EC50 that approximates it; ≥ and ≤ were set here for values at or beyond the usual limits of such assays. Conditions: source organism: Campylobacter jejuni subsp. jejuni NCTC 11168 = ATCC 700819.
Test [10] addresses HLA-A*02:01. The experiment in a line: IEDB peptide-MHC binding, purified MHC/competitive/fluorescence; ≥ and ≤ were set here for values at or beyond the usual limits of such assays. Conditions: source organism: Zaire ebolavirus.
For test [11], the target named is HLA-A*03:01. Described as above. The settings on record: source organism: Zaire ebolavirus.
In test [12] the target is HLA-A*29:02. The experiment in a line: IEDB peptide-MHC binding, purified MHC/direct/fluorescence; filed as Kd, often an IC50 or EC50 that approximates it; ≥ and ≤ were set here for values at or beyond the usual limits of such assays. The settings on record: source organism: Mammarenavirus lassaense.
The next test addresses HLA-B*39:01. Described as above. The settings on record: source organism: Mammarenavirus lassaense.
The target of a further test is HLA-B*48:01. The test is described as above. Conditions: source organism: Mammarenavirus lassaense.
For a further test, the target named is HLA-B*57:01. Described as above. The settings on record: source organism: Mammarenavirus lassaense.
The mark [13] stands for this setting: source organism: Influenza A virus (A/Viet Nam/HN/2004(H5N1)).
The mark [14] stands for this setting: source organism: Influenza A virus (A/Puerto Rico/8/34/Mount Sinai(H1N1)).
Setting [15] is: source organism: Influenza A virus (A/Hong Kong/507/97(H5N1)).
[16] abbreviates: source organism: Influenza A virus (A/Taiwan/2/2006(H1N1)).
Setting [17] is: source organism: Influenza A virus (A/swine/Korea/S190/2004(H9N2)).
[18] abbreviates: source organism: Zaire ebolavirus.
Setting [19] is: source organism: Influenza A virus (A/England/627/01(H1N2)).
Setting [20] is: source organism: Escherichia coli O157:H7.
Setting [21] is: source organism: Mammarenavirus lassaense.

As to FRNQVKIRR, the Kd with HLA-A*01:01 (setting [13]), with HLA-A*02:01 [1] (setting [13]), with HLA-A*03:01 [2] (setting [13]), with HLA-A*11:01 (setting [13]), with HLA-A*24:02 [3] (setting [13]) and in the test with HLA-A*26:01 (source organism: Influenza A virus(A/swine/Shandong/fNY/2003(H9N2))) was at least 20 µM throughout. Besides, the dissociation constant (Kd) (usually the equilibrium constant for the complex coming apart) is at least 20 µM with HLA-A*69:01 (setting [13]); at least 20 µM with HLA-B*07:02 [4] (setting [13]); at least 20 µM with HLA-B*08:01 (setting [13]); at least 20 µM in the test with HLA-B*15:01 [5] (setting [13]); at least 20 µM with HLA-B*18:01 (setting [13]); 0.079 µM in the test with HLA-B*27:05 (setting [14]). Also, the Kd with HLA-B*40:01 (setting [13]), in the test with HLA-B*44:02 (setting [13]), with HLA-B*46:01 (setting [13]) and with HLA-B*58:01 (setting [13]) was at least 20 µM throughout.
Take GTSKIKMKW: the dissociation constant (Kd) with HLA-A*01:01 (setting [15]), in the test with HLA-A*02:01 [1] (setting [15]), with HLA-A*03:01 [2] (setting [15]), in the test with HLA-A*11:01 (setting [15]), with HLA-A*24:02 [3] (setting [15]) and with HLA-A*26:01 (setting [16]) was at least 20 µM each time. In addition, the Kd in the test with HLA-A*31:01 (setting [15]), in the test with HLA-A*69:01 (setting [15]), with HLA-B*07:02 [4] (setting [15]), with HLA-B*08:01 (setting [15]), in the test with HLA-B*15:01 [5] (setting [15]) and with HLA-B*15:09 (setting [16]) was at least 20 µM throughout. Also, the dissociation constant (Kd) with HLA-B*27:05 (setting [15]) was at least 20 µM; with HLA-B*40:01 (setting [15]), at least 20 µM; with HLA-B*44:02 (setting [15]) it was at least 20 µM; with HLA-B*46:01 (setting [15]), at least 20 µM; with HLA-B*58:01 (setting [15]), 0.18 µM.
IPKRNRSIL: the Kd with HLA-A*01:01 (setting [17]), with HLA-A*02:01 [1] (setting [17]), with HLA-A*03:01 [2] (setting [17]), in the test with HLA-A*11:01 (setting [17]), with HLA-A*24:02 [3] (setting [17]) and with HLA-A*31:01 (setting [17]) was at least 20 µM throughout. Further, the Kd in the test with HLA-A*69:01 (setting [17]) is at least 20 µM; with HLA-B*07:02 [4] (setting [14]) it was 0.015 µM; with HLA-B*08:01 (setting [14]), 0.268 µM; with HLA-B*15:01 [5] (setting [17]), at least 20 µM; with HLA-B*18:01 (setting [17]), at least 20 µM; in the test with HLA-B*27:05 (setting [17]), at least 20 µM. In addition, the Kd with HLA-B*40:01 (setting [17]), with HLA-B*44:02 (setting [17]), with HLA-B*46:01 (setting [17]) and with HLA-B*58:01 (setting [17]) was at least 20 µM throughout.
Turning to IWARTYFFK, the dissociation constant Kd with HLA-A*24:02 [3] (source organism: Salmonella enterica subsp. enterica serovar Choleraesuis str. SC-B67) came to 0.296 µM.
For KIRSEELSF, the IC50 (in general, the concentration needed to halve the response being measured) with HLA-A*24:02 [6] was at least 106 µM; with HLA-B*07:02 [7] (setting [18]) it was at least 173 µM; in the test with HLA-B*15:01 [8] it was at least 91.7 µM.
With KMARLGKGY, the equilibrium dissociation constant (Kd) was at least 20 µM with HLA-A*01:01 (setting [19]); at least 20 µM in the test with HLA-A*02:01 [1] (setting [19]); 0.252 µM with HLA-A*03:01 [2] (setting [14]); at least 20 µM with HLA-A*24:02 [3] (setting [19]); at least 20 µM with HLA-A*69:01 (setting [19]); at least 20 µM with HLA-B*07:02 [4] (setting [19]). Moreover, the dissociation constant (Kd) in the test with HLA-B*08:01 (setting [19]) was at least 20 µM; with HLA-B*15:01 [5] (setting [14]), 0.178 µM; in the test with HLA-B*27:05 (setting [14]), 0.379 µM; with HLA-B*40:01 (setting [19]), at least 20 µM; with HLA-B*44:02 (setting [19]) it was at least 20 µM; with HLA-B*46:01 (setting [19]) it was at least 20 µM. The Kd with HLA-B*58:01 (setting [19]) is at least 20 µM.
For LLKLWIDKV, the Kd with HLA-A*01:01 (setting [20]) was at least 20 µM; in the test with HLA-A*02:01 [1] (setting [20]) it was 0.0367 µM; with HLA-A*03:01 [2] (setting [20]), at least 20 µM; with HLA-A*11:01 (setting [20]), at least 20 µM; in the test with HLA-A*24:02 [3] (setting [20]), at least 20 µM; with HLA-A*31:01 (setting [20]), at least 20 µM. Moreover, the equilibrium dissociation constant (Kd) with HLA-B*07:02 [4] (setting [20]), with HLA-B*15:01 [5] (setting [20]), in the test with HLA-B*18:01 (setting [20]), with HLA-B*27:05 (setting [20]), with HLA-B*40:01 (setting [20]) and with HLA-B*44:02 (setting [20]) was at least 20 µM each time. In the test with HLA-B*58:01 (setting [20]), this sequence had an equilibrium dissociation constant (Kd) of at least 20 µM.
In turn, LYAYWYHLY came in with a dissociation constant Kd with HLA-A*29:02 [9] of 0.8 nM.
As to RPSSSQIPS, in the test with HLA-B*07:02 [7] (source organism: Sudan ebolavirus), the IC50 stood at 10.9 µM.
For RTRREAIVN, the figures for the IC50 with HLA-A*02:01 [10] and in the test with HLA-B*07:02 [7] (setting [18]) were at least 119 µM and at least 92.6 µM, respectively.
In the case of RVIPVYQVN, the IC50 was at least 87.2 µM with HLA-A*02:01 [10]; at least 277 µM in the test with HLA-A*03:01 [11]; 51.6 µM with HLA-A*24:02 [6]; at least 151 µM with HLA-B*07:02 [7] (setting [18]); at least 72.8 µM in the test with HLA-B*15:01 [8].
For SHGIDVTDL, the Kd with HLA-A*01:01 (setting [21]), with HLA-A*02:01 [1] (setting [21]), in the test with HLA-A*03:01 [2] (setting [21]), with HLA-A*11:01 (setting [21]), with HLA-A*29:02 [12] and in the test with HLA-A*31:01 (setting [21]) was at least 20 µM throughout. The Kd with HLA-A*69:01 (setting [21]), with HLA-B*07:02 [4] (setting [21]), with HLA-B*15:01 [5] (setting [21]), with HLA-B*15:09 (setting [21]), in the test with HLA-B*18:01 (setting [21]) and with HLA-B*27:05 (setting [21]) was at least 20 µM throughout. Also, the Kd with HLA-B*39:01, with HLA-B*40:01 (setting [21]), with HLA-B*44:02 (setting [21]), with HLA-B*46:01 (setting [21]), with HLA-B*48:01 and with HLA-B*57:01 was at least 20 µM each time. For the same sequence, in the test with HLA-B*58:01 (setting [21]), the equilibrium dissociation constant (Kd) was at least 20 µM.
Regarding VATAHGSTL, the concentration for half-maximal inhibition (IC50) is at least 136 µM with HLA-A*02:01 [10], 12.7 µM with HLA-A*24:02 [6] and at least 70.5 µM in the test with HLA-B*07:02 [7] (setting [18]).
